No end group written: not given here.
Assays:
Type in all cases: physicochemical
Parameters in all cases: key: “−” represents no substantial alteration of the stainable bands; “+” represents substantial alteration of the stainable bands
[1] = target: T1, recombinant N-glycosidase F (Elizabethkingia miricola, UniProt P21163); experiment: Treatment of Product R with N-glycosidase F, SDS-PAGE on a 16% gel; conditions: 37° C., 4 hours
T1 construct: purchased Boehringer Mannheim, USA
T1 sequence (P21163 41-354): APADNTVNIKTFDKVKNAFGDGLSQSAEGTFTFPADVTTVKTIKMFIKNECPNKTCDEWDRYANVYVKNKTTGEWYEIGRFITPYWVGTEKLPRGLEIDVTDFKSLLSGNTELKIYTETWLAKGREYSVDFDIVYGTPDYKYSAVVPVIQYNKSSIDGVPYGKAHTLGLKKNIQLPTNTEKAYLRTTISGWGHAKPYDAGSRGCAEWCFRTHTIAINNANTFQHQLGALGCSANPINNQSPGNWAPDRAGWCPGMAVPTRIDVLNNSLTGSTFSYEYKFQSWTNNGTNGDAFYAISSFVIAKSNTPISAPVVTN
Experimental: (§1) The biochemical properties of the peptides: Some biochemical properties of the silverstainable peptide components of Product R are analyzed using various catabolic enzymes, as described below:
The treatment with N-glycosidase F (Boehringer Mannheim, USA): N-glycosidase F cleaves all types of asparagine bound N-glycans provided that the amino group and the carboxyl group are present in a peptide linkage and the oligosaccharide has the minimum length of the chitobiose core unit. A Product R sample is incubated in a reaction buffer containing 0.4X Dulbecco's PBS (where 1X PBS contains 1.47 mM KH2 PO4, 2.67 mM KCl, 138 mM NaCl and 8.1 mM Na2 PO4 7H2O), 0.1% SDS, 0.5% NP40 and 50 units/mil of recombinant N-glycosidase F at 37° C. for 4 hours and subject to SDS-PAGE on a 16% gel. […] The resistance to N-glycosidase F indicates the lack of asparagine bound N-glycan, which is commonly observed in glycoproteins.
(§2) A summary of the above described treatments by catabolic enzymes is provided in the following TABLE III, and the results of the treatment are shown in FIG. 5, wherein “−” represents no substantial alteration of the stainable bands and “+” represents substantial alteration of the stainable bands.

pronase from S. griseus = experiment: Treatment of Product R with pronase, SDS-PAGE on a 16% gel; conditions: 2 mg/ml pronase, 40° C., 75 minutes
Experimental: as §1
The treatment with pronase (Boehringer Mannlheim. USA): Pronase is a non-specific protease, acts on both native and denatured proteins. It breaks down virtually all proteins into their individual amino acids. The preparation contains various types of endo-peptidases such as srine and metalloproteases, exo-peptidases such as carboypepsidases, neutral protease and neutral and alkaline phosphatases. A Product R sample is incubated in a reaction buffer containing 100 mM Tris-HCl, pH 7.4; 10 mM CaCl2; 0.1% SDS and 2 mg/ml of pronase from S. griseus at 40° C. for 75 minutes and then subject to SDS-PAGE on a 16% gel. All silver stained components disappear after such treatment of pronase.
as §2

[2] = target: T2, bovine pancreatic Ribonuclease A (Bos taurus, UniProt P61823); experiment: Treatment of Product R with ribonuclease A, SDS-PAGE on a 16% gel; conditions: 37° C., about 1 hour
T2 construct: purchased ICN Biochemicals, USA
T2 sequence (P61823 27-150): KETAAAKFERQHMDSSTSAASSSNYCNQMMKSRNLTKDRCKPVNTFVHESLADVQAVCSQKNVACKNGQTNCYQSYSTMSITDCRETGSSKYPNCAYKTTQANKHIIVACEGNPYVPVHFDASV
Experimental: as §1
The treatment with ribonuclease A (ICN Biochemicals, USA): Ribonuclease A is a pyrimidine specific endoribonuclease that acts on single stranded RNA. A Product R sample is incubated in a reaction buffer containing 10 mM Tris-HCl, pH 7.4, 3 mM MgCl2, and I mg/ml of bovine pancreatic Ribonuclease A at 37° C. for about 1 hour and subject to SDS-PAGE on a 16% gel. […] The resistance to ribonuclease A excludes the possibility of the presence of a RNA fragment attached to the peptide.
as §2

Which “Sensitivity of the Peptide Components of Product R (SDS-PAGE): N-glycosidase F (50 units/ml)” value [1] does the source give for “GEIPDAGGRIVDYYVGFSDSV (not fully specified (residue 18)) [Peptide-B, 21-amino acid peptide linked at serine 18 through a diphosphodiester group to the 3′-end of an adenylyl (3′-5′) adenosine moiety]” here?
The value was “−”.

What about the “Sensitivity of the Peptide Components of Product R (SDS-PAGE): Pronase (2 mg/ml)” value (pronase from S. griseus) of the same sequence?
The value was “+”.

And the “Sensitivity of the Peptide Components of Product R (SDS-PAGE): Ribonuclease A (1 mg/ml)” value [2]?
The value was “−”.

Which “Sensitivity of the Peptide Components of Product R (SDS-PAGE): N-glycosidase F (50 units/ml)” value [1] does the source give for “KVLPVPQKAVPYPQRDMPIQAFLLYQEPVLG [Peptide-A, 31-amino-acid long peptide derived from bovine beta-casein, constituent of Product R]” here?
The value was “−”.

What about the “Sensitivity of the Peptide Components of Product R (SDS-PAGE): Pronase (2 mg/ml)” value (pronase from S. griseus) of the same sequence?
The value was “+”.

And the “Sensitivity of the Peptide Components of Product R (SDS-PAGE): Ribonuclease A (1 mg/ml)” value [2]?
The value was “−”.
